Assay results: patent publication US7749968B2, “Peptides for targeting the prostate specific membrane antigen” (The Johns Hopkins University, priority 2002, dated 2010)

Target: T1, Tag-xPSM (Homo sapiens, UniProt Q04609)
T1 construct: made in house; host or cells: Sf-9 insect cells infected with recombinant baculovirus; protein harvested from the media
Assay: Tag-xPSM phage display selection (agarose/cellulose), sequencing of selected phage
Type: binding
Experimental: 100 μl of S-protein agarose (2× in RPMI 1640+1% Fetal Bovine Serum (FBS) and 100 μl of CBind Resin (10 mg/ml in RPMI 1640+1% FBS) without fusion protein were used to negatively select the original phage display library. 2×10^11 plaque forming units (PFU) of 1.29×10^9 different sequence phage were incubated with each aliquot of resin for 1 hr at 37° C., while rotating. The S-tag agarose was pelleted and supernatant saved as the agarose counter-selected pool. The cellulose resin was transferred onto 200 μl of 9:1 dibutyl phthalate:cyclohexane and the resin pelleted through the organic phase. The aqueous supernatant was saved as the cellulose counter-selected pool. Each counter selected pool was then added to tag-xPSM agarose or cellulose resin and incubated for 1 hr at 37° C., while rotating. The tag-xPSM agarose was pelleted and washed three times in RPMI 1640+1% FBS. The agarose pellet was then saved for phage isolation. The Tag-xPSM cellulose was transferred onto 200 μl of 9:1 dibutyl phthalate:cyclohexane and the resin pelleted through the organic phase. The tube was then snap frozen in liquid nitrogen to isolate the resin pellet. Over 75% of Tag-xPSM remained bound to the cellulose resin through these conditions. The resulting phage-bound tag-xPSM agarose and tag-xPSM cellulose were then resuspended in 200 μl of log phage ER2738 cells and phage allowed to infect 1 hour at room temperature. A small aliquot was taken at this time to quantitate the number of phage bound per round of selection. The remaining PSMA bound phage was then amplified, tittered, and applied to the next round of phage display. There was only one counter-selection round, followed by a total of five positive selection rounds, applying between 10^10 to 10^11 PFU per round. The final round of selection included cross-selections, where selected phage pools from one PSMA background where applied to the other. Individual phage were isolated and sequenced from rounds three through five.
Individual phage plaques were amplified for 5 hours in ER2738 cells at 37° C. Amplified supernatant was incubated 1:1 with PEG/NaCl buffer (20% PEG 8000, 2.5 M NaCl) for 10 minutes at room temperature. Phage were microfuged 10 minutes at 20,000 g, 4° C. The phage pellet was suspended in 100 μl Iodide buffer (10 mM Tris-HCl, pH 8.0, 1 mM EDTA, 4M NaI). Single stranded DNA (ssDNA) was precipitated with 250 μl of 100% ethanol, pelleted, and washed in 70% ethanol. Each ssDNA pellet was suspended in 30 μl 10 mM Tris, pH 7.4. Each phage was sequenced using the Amersham DYE ET mix, by incubating 6 μl ssDNA, 1 μl of 5 μM-96 pill Sequencing Primer ([…]; SEQ ID NO:108), and 8 μl of DYE ET mix in a 96 well PCR plate and amplified by 30 cycles of 95° C. for 20 seconds, 50° C. for 15 seconds, and 60° C. for 1 minute. Sequencing reaction products were spun through G50-fine Sephadex column plates, prepared on Millipore-multiscreen plates. Products were sequenced and analyzed on the MegaBACE capillary sequencer. All sequences, minus the flanking cysteines, were aligned using the Baylor College of Medicine Clustal W1.8 Global Progressive Alignment (available online) with data presented by Boxshade 3.21 software (available online through the Swiss Institute for Bioinformatics).
2×10^11 plaque-forming units (PFU) of the library was incubated with each aliquot of resin for one hour at 37° C., while rotating. The S-tag agarose was pelleted and the supernatant saved as the agarose counter-selected pool. The cellulose resin was transferred onto a 9:1 ratio of dibutyl phthalate:cyclohexane and the resin centrifuged through the organic phase. The aqueous supernatant was saved as the cellulose counter-selected pool. Each counter selected pool was then added to tag-xPSM agarose or cellulose resin, respectively, and incubated for one hour at 37° C., while rotating (see FIG. 2). The Tag-xPSM agarose was pelleted, washed, and saved for phage isolation. […]

T1 sequence (Q04609 44-750 limits assumed): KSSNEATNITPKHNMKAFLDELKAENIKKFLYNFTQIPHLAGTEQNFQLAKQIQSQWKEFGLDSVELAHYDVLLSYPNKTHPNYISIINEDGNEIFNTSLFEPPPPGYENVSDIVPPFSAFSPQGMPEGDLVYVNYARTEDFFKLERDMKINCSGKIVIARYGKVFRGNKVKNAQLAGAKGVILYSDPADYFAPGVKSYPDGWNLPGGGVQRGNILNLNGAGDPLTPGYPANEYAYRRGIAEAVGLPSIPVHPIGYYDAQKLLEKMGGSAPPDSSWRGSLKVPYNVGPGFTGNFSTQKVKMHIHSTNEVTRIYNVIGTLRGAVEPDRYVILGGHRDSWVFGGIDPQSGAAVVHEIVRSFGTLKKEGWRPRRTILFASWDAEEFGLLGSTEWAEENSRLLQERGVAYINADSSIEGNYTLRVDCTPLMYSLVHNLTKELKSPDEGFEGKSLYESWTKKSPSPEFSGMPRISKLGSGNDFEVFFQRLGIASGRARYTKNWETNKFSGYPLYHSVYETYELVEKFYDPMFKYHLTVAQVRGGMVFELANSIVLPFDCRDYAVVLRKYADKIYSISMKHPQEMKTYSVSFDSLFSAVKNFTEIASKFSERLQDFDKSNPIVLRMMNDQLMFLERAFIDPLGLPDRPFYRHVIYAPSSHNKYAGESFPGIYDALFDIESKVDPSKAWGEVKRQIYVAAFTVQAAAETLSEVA

| Sequence | Number of times sequence was found, Round 3 (Agarose) | Number of times sequence was found, Round 4 (Agarose) | Number of times sequence was found, Round 5 (Agarose) | Number of times sequence was found, Round 3 (Cellulose) | Number of times sequence was found, Round 4 (Cellulose) | Number of times sequence was found, Round 5 (Cellulose) |
| --- | --- | --- | --- | --- | --- | --- |
| CHTSLKTHC [SEQ ID NO:14] | 0/0 | 0 | 0/0 | 0/0 | 1 | 0/0 |
| CTPLSPRYC [SEQ ID NO:12] | 0/0 | 0 | 0/0 | 0/0 | 1 | 0/0 |
| CLSSNSSLC [SEQ ID NO:28] | 0 | 0/0 | 0/0 | 1 | 0/0 | 0/0 |
| CPIMLSEPC [SEQ ID NO:26] | 1 | 0/0 | 0/0 | 0 | 0/0 | 0/0 |
| CGLPTRTAC [SEQ ID NO:16] | 0/0 | 0 | 0/0 | 0/0 | 1 | 0/0 |
| CTITSKRTC [SEQ ID NO:2] | 0 | 3/3 | 0 | 1 | 3/3 | 3 |
| CAPNKYKHC [SEQ ID NO:11] | 0/0 | 1 | 0/0 | 0/0 | 0 | 0/0 |
| CKHSVSPSC [SEQ ID NO:18] | 0/0 | 0 | 0/0 | 0/0 | 1 | 0/0 |
| CSTRAPHLC [SEQ ID NO:5] | 0/0 | 0/0 | 0 | 0/0 | 0/0 | 1 |
| CHKFQSKMC [SEQ ID NO:17] | 0/0 | 0 | 0/0 | 0/0 | 1 | 0/0 |
| CFPQSSDRC [SEQ ID NO:24] | 1 | 0/0 | 0/0 | 0 | 0/0 | 0/0 |
| CHTKHASHC [SEQ ID NO:6] | 0/0 | 0/0 | 0 | 0/0 | 0/0 | 1 |
| CKPSMMSYC [SEQ ID NO:8] | 0/0 | 0/0 | 0 | 0/0 | 0/0 | 1 |
| CTNSNMHHC [SEQ ID NO:22] | 1 | 0/0 | 0/0 | 0 | 0/0 | 0/0 |
| CKPTNQHKC [SEQ ID NO:19] | 0/0 | 0 | 0/0 | 0/0 | 1 | 0/0 |
| CNKSSLGTC [SEQ ID NO:13] | 0/0 | 0 | 0/0 | 0/0 | 1 | 0/0 |
| CLSTTISYC [SEQ ID NO:21] | 0/0 | 0 | 0/0 | 0/0 | 1 | 0/0 |
| CHTTTDVYC [SEQ ID NO:25] | 1 | 0/0 | 0/0 | 0 | 0/0 | 0/0 |
| CDAVRYPVC [SEQ ID NO:20] | 0/0 | 0 | 0/0 | 0/0 | 1 | 0/0 |
| CLKSHSHQC [SEQ ID NO:15] | 0/0 | 0 | 0/0 | 0/0 | 1 | 0/0 |
